Measured values published in the FLAb antibody collection (doi:10.7554/elife.23156).

B1: scFv; the commonest letter at each place (parent)
chain 1: EVKLDETGGGLVQPGRPMKLSCVASGFTFSDYWMNWVRQSPEKGLEWVAQIRNKPYNYETYYSDSVKGRFTISRDDSKSSVYLQMNNLRVEDMGIYYCTGSYYGMDYWGQGTSVTVS
chain 2: DVVMTQTPLSLPVSLGDQASISCRSSQSLVHSNGNTYLRWYLQKPGQSPKVLIYKVSNRFSGVPDRFSGSGSGTDFTLKISRVEAEDLGVYFCSQSTHVPWTFGGGTKLEIK

Experiments:
[1] = variants of: B1; assay: Kd (Tite-Seq); conditions: with fluorescein; format: scFv 4-4-20, heavy + light
[2] = variants of: B1; assay: yeast surface expression (ratio to wild type); higher = more expressed; conditions: format: scFv 4-4-20, heavy + light

chain 1 T28W D31Y
Kd [1]: 0.11 µM | yeast surface expression [2]: 0.371

chain 1 S101F M105G
Kd [1]: ≥ 10 µM | yeast surface expression [2]: 0.559

chain 1 G100Q D106I
Kd [1]: ≥ 10 µM | yeast surface expression [2]: 0.184

chain 1 G100Q D106H
Kd [1]: ≥ 10 µM | yeast surface expression [2]: 0.182

chain 1 D31E W36Q
Kd [1]: ≥ 10 µM | yeast surface expression [2]: 0.326

chain 1 M34I W36K
Kd [1]: ≥ 10 µM | yeast surface expression [2]: 0.24

chain 1 G100C Y107S
Kd [1]: 2.88 µM | yeast surface expression [2]: 0.64

chain 1 S101C M105Y Y107T
Kd [1]: ≥ 10 µM | yeast surface expression [2]: 0.488

chain 1 S101G Y103R
Kd [1]: ≥ 10 µM | yeast surface expression [2]: 0.949

chain 1 S101V M105H
Kd [1]: ≥ 10 µM | yeast surface expression [2]: 0.496

chain 1 W36M V37S
Kd [1]: ≥ 10 µM | yeast surface expression [2]: 0.415

chain 1 S30E D31S
Kd [1]: 0.00239 µM | yeast surface expression [2]: 0.987

chain 1 Y102F Y103I
Kd [1]: 0.0729 µM | yeast surface expression [2]: 0.793

chain 1 Y103G M105N
Kd [1]: ≥ 10 µM | yeast surface expression [2]: 1.46

chain 1 M34Q W36E
Kd [1]: ≥ 10 µM | yeast surface expression [2]: 2.19

chain 1 G100V M105S
Kd [1]: ≥ 10 µM | yeast surface expression [2]: 0.855

chain 1 Y102L Y107S
Kd [1]: 5.96 µM | yeast surface expression [2]: 1.78

chain 1 W33C N35W
Kd [1]: 5.37 µM | yeast surface expression [2]: 0.456

chain 1 S101L Y102V
Kd [1]: ≥ 10 µM | yeast surface expression [2]: 0.401

chain 1 D31L W36H
Kd [1]: ≥ 10 µM | yeast surface expression [2]: 0.82

chain 1 G100F W108A
Kd [1]: ≥ 10 µM | yeast surface expression [2]: 0.671

chain 1 F29W W36Y
Kd [1]: ≥ 10 µM | yeast surface expression [2]: 0.591

chain 1 W33N W36R
Kd [1]: ≥ 10 µM | yeast surface expression [2]: 0.764

chain 1 W33Q W36K
Kd [1]: ≥ 10 µM | yeast surface expression [2]: 0.466

chain 1 G100V W108N
Kd [1]: ≥ 10 µM | yeast surface expression [2]: 0.468

chain 1 G100V W108V
Kd [1]: 0.000846 µM | yeast surface expression [2]: 0.892

chain 1 W108E
Kd [1]: ≥ 10 µM | yeast surface expression [2]: 0.463

chain 1 W108H
Kd [1]: 0.00468 µM | yeast surface expression [2]: 0.333

chain 1 D31Q W36V
Kd [1]: ≥ 10 µM | yeast surface expression [2]: 0.596

chain 1 G100Y Y107K
Kd [1]: ≥ 10 µM | yeast surface expression [2]: 0.555

chain 1 Y103M
Kd [1]: 0.0015 µM | yeast surface expression [2]: 1.27

chain 1 Y32G
Kd [1]: 1.63 µM | yeast surface expression [2]: 0.961

chain 1 Y32E
Kd [1]: ≥ 10 µM | yeast surface expression [2]: 0.927

chain 1 S30L N35T
Kd [1]: ≥ 10 µM | yeast surface expression [2]: 0.699

chain 1 S30D D31G W33A
Kd [1]: ≥ 10 µM | yeast surface expression [2]: 0.663

chain 1 D31Y W36S
Kd [1]: ≥ 10 µM | yeast surface expression [2]: 0.638

chain 1 S30A M34L
Kd [1]: 0.00115 µM | yeast surface expression [2]: 1.1

chain 1 G100N S101C
Kd [1]: ≥ 10 µM | yeast surface expression [2]: 0.234

chain 1 Y32I W33T N35A
Kd [1]: ≥ 10 µM | yeast surface expression [2]: 0.824

chain 1 D106F Y107D
Kd [1]: ≥ 10 µM | yeast surface expression [2]: 0.296

chain 1 S101M G104I
Kd [1]: ≥ 10 µM | yeast surface expression [2]: 0.274

chain 1 Y103I M105E
Kd [1]: ≥ 10 µM | yeast surface expression [2]: 0.733

chain 1 Y103I M105W
Kd [1]: 0.0146 µM | yeast surface expression [2]: 0.528

chain 1 F29Y Y32H
Kd [1]: 0.205 µM | yeast surface expression [2]: 0.756

chain 1 G100S D106E
Kd [1]: 0.0534 µM | yeast surface expression [2]: 1.15

chain 1 F29R V37P
Kd [1]: ≥ 10 µM | yeast surface expression [2]: 0.289

chain 1 Y103H M105F Y107L
Kd [1]: ≥ 10 µM | yeast surface expression [2]: 0.92

chain 1 Y103L G109I
Kd [1]: ≥ 10 µM | yeast surface expression [2]: 0.206

chain 1 Y103P Y107D
Kd [1]: ≥ 10 µM | yeast surface expression [2]: 0.617

chain 1 Y107M G109K
Kd [1]: ≥ 10 µM | yeast surface expression [2]: 0.42

chain 1 Y102P W108Y
Kd [1]: ≥ 10 µM | yeast surface expression [2]: 0.464

chain 1 W36Y V37I
Kd [1]: 0.0205 µM | yeast surface expression [2]: 0.75

chain 1 W33S N35I
Kd [1]: ≥ 10 µM | yeast surface expression [2]: 0.495

chain 1 Y107R G109H
Kd [1]: ≥ 10 µM | yeast surface expression [2]: 0.277

chain 1 M105D D106T
Kd [1]: ≥ 10 µM | yeast surface expression [2]: 0.588

chain 1 S101H M105V
Kd [1]: ≥ 10 µM | yeast surface expression [2]: 0.592

chain 1 F29Q W36H
Kd [1]: ≥ 10 µM | yeast surface expression [2]: 0.405

chain 1 G100F G109N
Kd [1]: ≥ 10 µM | yeast surface expression [2]: 0.41

chain 1 N35S V37E
Kd [1]: ≥ 10 µM | yeast surface expression [2]: 0.574

chain 1 F29M N35W
Kd [1]: ≥ 10 µM | yeast surface expression [2]: 0.403

chain 1 W33R N35Y
Kd [1]: ≥ 10 µM | yeast surface expression [2]: 0.794

chain 1 Y102I W108N
Kd [1]: ≥ 10 µM | yeast surface expression [2]: 0.316

chain 1 D106I
Kd [1]: ≥ 10 µM | yeast surface expression [2]: 0.577

chain 1 D106T Y107V
Kd [1]: 5.37 µM | yeast surface expression [2]: 0.829

chain 1 S30C W36G
Kd [1]: 0.021 µM | yeast surface expression [2]: 0.208

chain 1 S30C W36E
Kd [1]: ≥ 10 µM | yeast surface expression [2]: 0.214

chain 1 W33E N35C
Kd [1]: ≥ 10 µM | yeast surface expression [2]: 0.797

chain 1 Y103H Y107I
Kd [1]: ≥ 10 µM | yeast surface expression [2]: 1.25

chain 1 Y32G W33N
Kd [1]: ≥ 10 µM | yeast surface expression [2]: 0.799

chain 1 Y102L D106R
Kd [1]: ≥ 10 µM | yeast surface expression [2]: 0.344

chain 1 Y103A D106I W108P
Kd [1]: ≥ 10 µM | yeast surface expression [2]: 0.344

chain 1 W33C
Kd [1]: ≥ 10 µM | yeast surface expression [2]: 0.827

chain 1 Y103G G109T
Kd [1]: ≥ 10 µM | yeast surface expression [2]: 0.68

chain 1 G100V S101I
Kd [1]: ≥ 10 µM | yeast surface expression [2]: 0.653

chain 1 S101Q M105V
Kd [1]: ≥ 10 µM | yeast surface expression [2]: 0.835

chain 1 Y102E W108I
Kd [1]: 0.000846 µM | yeast surface expression [2]: 0.763

chain 1 T28M V37K
Kd [1]: ≥ 10 µM | yeast surface expression [2]: 0.399

chain 1 T28Y
Kd [1]: 0.00325 µM | yeast surface expression [2]: 0.919

chain 1 Y102M Y103T
Kd [1]: ≥ 10 µM | yeast surface expression [2]: 0.766

chain 1 D106P W108K
Kd [1]: ≥ 10 µM | yeast surface expression [2]: 0.407

chain 1 N35P W36T
Kd [1]: ≥ 10 µM | yeast surface expression [2]: 0.338

chain 1 S30H Y32R V37Q
Kd [1]: 0.0189 µM | yeast surface expression [2]: 1.99

chain 1 S101R W108L
Kd [1]: ≥ 10 µM | yeast surface expression [2]: 0.22

chain 1 D31E Y32M
Kd [1]: 8.13 µM | yeast surface expression [2]: 0.789

chain 1 Y32C M34Y
Kd [1]: ≥ 10 µM | yeast surface expression [2]: 0.843

chain 1 Y103L D106I
Kd [1]: ≥ 10 µM | yeast surface expression [2]: 0.764

chain 1 Y103C M105G
Kd [1]: ≥ 10 µM | yeast surface expression [2]: 0.611

chain 1 G100A G104L D106M
Kd [1]: ≥ 10 µM | yeast surface expression [2]: 0.244

chain 1 S101G W108R
Kd [1]: ≥ 10 µM | yeast surface expression [2]: 0.436

chain 1 M105E
Kd [1]: 4.15 µM | yeast surface expression [2]: 1.01

chain 1 M34R V37W
Kd [1]: 0.0353 µM | yeast surface expression [2]: 3.88

chain 1 Y103E W108D
Kd [1]: ≥ 10 µM | yeast surface expression [2]: 0.473

chain 1 Y103E W108R
Kd [1]: ≥ 10 µM | yeast surface expression [2]: 0.463

chain 1 Y103E W108N
Kd [1]: ≥ 10 µM | yeast surface expression [2]: 0.446

chain 1 Y102A G109K
Kd [1]: ≥ 10 µM | yeast surface expression [2]: 0.279

chain 1 Y32P V37G
Kd [1]: ≥ 10 µM | yeast surface expression [2]: 2.54

chain 1 Y32R W33I
Kd [1]: ≥ 10 µM | yeast surface expression [2]: 0.763

chain 1 M34L N35T
Kd [1]: ≥ 10 µM | yeast surface expression [2]: 0.824

chain 1 W33V V37S
Kd [1]: ≥ 10 µM | yeast surface expression [2]: 0.535

chain 1 Y32P N35Y
Kd [1]: ≥ 10 µM | yeast surface expression [2]: 0.488

chain 1 M105A W108L
Kd [1]: 0.00184 µM | yeast surface expression [2]: 0.505

chain 1 G100C W108L
Kd [1]: 0.000389 µM | yeast surface expression [2]: 0.653

chain 1 V37T
Kd [1]: 0.00606 µM | yeast surface expression [2]: 0.626

chain 1 V37S
Kd [1]: 0.00561 µM | yeast surface expression [2]: 0.673

chain 1 V37A
Kd [1]: 0.0434 µM | yeast surface expression [2]: 0.784

chain 1 V37L
Kd [1]: 1.14 µM | yeast surface expression [2]: 0.782

chain 1 S101W G109V
Kd [1]: ≥ 10 µM | yeast surface expression [2]: 0.224

chain 1 S101W G109T
Kd [1]: ≥ 10 µM | yeast surface expression [2]: 0.212

chain 1 F29G D31Y
Kd [1]: ≥ 10 µM | yeast surface expression [2]: 0.708

chain 1 F29G D31E
Kd [1]: ≥ 10 µM | yeast surface expression [2]: 0.955

chain 1 D31L Y32N
Kd [1]: ≥ 10 µM | yeast surface expression [2]: 0.847

chain 1 M105R W108L
Kd [1]: 0.000333 µM | yeast surface expression [2]: 0.585

chain 1 W33I M34F
Kd [1]: ≥ 10 µM | yeast surface expression [2]: 1

chain 1 D31S Y32C
Kd [1]: 6.61 µM | yeast surface expression [2]: 0.648

chain 1 T28G N35C
Kd [1]: ≥ 10 µM | yeast surface expression [2]: 0.586
